Experimental data published in patent US12460006B2, “Antibodies against integrin alpha 11 beta 1” (Momenta Pharmaceuticals, Inc., priority 2019, dated 2025).
Blank lines part the entries; values can stand above or below the molecule they belong to.

Legend:
[1] = system: CHO-K1 cells expressing human α11; assay: Cell adhesion inhibition (xCelligence), type I collagen; format: cell-based; conditions: Yes/No
Outline: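 CHO-K1 cells expressing human α11 (0.6×10^6 cells/mL) were preincubated with mAbs across a concentration range for 20 min at 37° C, then seeded on wells coated with 100 ng/mL type I collagen and blocked with 3% BSA. Impedance-based adhesion was recorded over 6 h, and maximum adhesion was compared with untreated control.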

[2] = system: Human Pulmonary Fibroblasts; assay: Fibroblast-to-Myofibroblasts Transition (FMT), αSMA expression; format: cell-based; conditions: Yes/No
Outline: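 Cells seeded at 20,000/well, serum-starved 24 h, then given TGFβ-1 with or without anti-α11 antibodies for 48 h; polyclonal anti-α11 and isotype IgG served as controls. Fixed, permeabilized cells were stained for αSMA and analysed by flow cytometry (single-cell gMFI). Values are normalized to untreated control as % inhibition.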

[3] = system: α1β1, α2β1 and/or α10β1; assay: Counter-screen for cross-reactivity to other collagen receptors; format: binding, human; conditions: cross-reactivity to α1β1, α2β1, α10β1
Outline: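 Rat- and mouse-derived anti-α11β1 hybridoma supernatants or clones, first identified by ELISA against human and mouse α11β1, were counter-screened by ELISA against human α1β1, α2β1 and α10β1 to assess cross-reactivity to related collagen receptors.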

[4] = target: mouse α11β1 (Mus musculus, UniProt P61622); assay: ELISA binding to recombinant mouse α11β1; conditions: binding Yes/No
Outline: (§1)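 Antibodies at a range of concentrations bind plate-immobilized recombinant α11β1 (human or mouse, 0.25 μg/mL coating) for 1 h at room temperature.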

[5] = target: human α11β1 (Homo sapiens, UniProt Q9UKX5); assay: ELISA binding to recombinant human α11β1; conditions: binding Yes/No
Outline: as §1

human α11β1, sequence (Q9UKX5 23-1141 limits assumed): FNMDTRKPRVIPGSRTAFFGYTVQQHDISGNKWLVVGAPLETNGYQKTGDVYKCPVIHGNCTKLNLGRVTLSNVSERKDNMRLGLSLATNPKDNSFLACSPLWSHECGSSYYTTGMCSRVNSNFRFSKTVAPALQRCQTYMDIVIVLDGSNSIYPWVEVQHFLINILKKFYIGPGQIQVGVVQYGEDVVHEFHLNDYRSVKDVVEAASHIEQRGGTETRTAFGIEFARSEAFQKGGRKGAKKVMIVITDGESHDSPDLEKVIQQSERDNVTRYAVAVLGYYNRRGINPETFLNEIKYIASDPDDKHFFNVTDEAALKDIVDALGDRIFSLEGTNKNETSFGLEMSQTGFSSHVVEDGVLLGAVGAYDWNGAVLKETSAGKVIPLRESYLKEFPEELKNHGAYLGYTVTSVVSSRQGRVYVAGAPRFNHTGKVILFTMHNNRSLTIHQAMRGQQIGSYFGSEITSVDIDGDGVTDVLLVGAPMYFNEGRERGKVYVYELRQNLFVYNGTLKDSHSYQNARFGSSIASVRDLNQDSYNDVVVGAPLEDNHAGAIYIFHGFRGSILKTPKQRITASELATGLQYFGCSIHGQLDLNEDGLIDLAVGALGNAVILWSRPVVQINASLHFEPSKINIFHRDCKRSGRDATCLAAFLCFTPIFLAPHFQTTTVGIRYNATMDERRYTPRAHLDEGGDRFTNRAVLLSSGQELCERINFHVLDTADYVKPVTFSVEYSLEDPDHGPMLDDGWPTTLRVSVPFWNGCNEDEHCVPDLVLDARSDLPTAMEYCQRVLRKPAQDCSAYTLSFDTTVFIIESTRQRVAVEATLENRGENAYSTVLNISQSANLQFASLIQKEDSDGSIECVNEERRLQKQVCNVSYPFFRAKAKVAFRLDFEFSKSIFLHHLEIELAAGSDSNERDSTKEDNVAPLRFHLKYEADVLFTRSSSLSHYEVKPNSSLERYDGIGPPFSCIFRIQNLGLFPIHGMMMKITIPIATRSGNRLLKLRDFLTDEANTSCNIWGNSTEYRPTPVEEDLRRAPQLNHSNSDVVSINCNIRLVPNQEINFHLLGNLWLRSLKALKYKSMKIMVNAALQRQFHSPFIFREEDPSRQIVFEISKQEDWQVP
human α11β1, sequence (P05556 21-728 partner limits assumed): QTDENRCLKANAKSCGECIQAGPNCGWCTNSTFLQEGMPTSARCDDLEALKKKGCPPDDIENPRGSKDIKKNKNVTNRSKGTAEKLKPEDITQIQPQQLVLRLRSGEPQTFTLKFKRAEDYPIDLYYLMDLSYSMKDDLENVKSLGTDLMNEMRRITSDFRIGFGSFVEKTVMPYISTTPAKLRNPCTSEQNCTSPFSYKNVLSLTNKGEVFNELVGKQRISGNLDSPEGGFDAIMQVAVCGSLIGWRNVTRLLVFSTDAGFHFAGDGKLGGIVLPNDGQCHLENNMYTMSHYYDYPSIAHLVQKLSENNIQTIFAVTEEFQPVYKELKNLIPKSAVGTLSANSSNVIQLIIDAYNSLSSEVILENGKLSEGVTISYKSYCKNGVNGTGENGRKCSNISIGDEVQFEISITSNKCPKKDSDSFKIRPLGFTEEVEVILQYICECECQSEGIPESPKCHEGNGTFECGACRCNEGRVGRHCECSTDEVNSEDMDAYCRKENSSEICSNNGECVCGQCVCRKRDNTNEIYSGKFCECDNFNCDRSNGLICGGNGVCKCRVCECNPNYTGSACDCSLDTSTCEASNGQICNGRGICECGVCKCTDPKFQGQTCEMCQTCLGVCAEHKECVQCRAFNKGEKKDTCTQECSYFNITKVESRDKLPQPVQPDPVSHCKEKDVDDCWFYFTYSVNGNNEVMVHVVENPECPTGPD
mouse α11β1, sequence (P61622 23-1141 limits assumed): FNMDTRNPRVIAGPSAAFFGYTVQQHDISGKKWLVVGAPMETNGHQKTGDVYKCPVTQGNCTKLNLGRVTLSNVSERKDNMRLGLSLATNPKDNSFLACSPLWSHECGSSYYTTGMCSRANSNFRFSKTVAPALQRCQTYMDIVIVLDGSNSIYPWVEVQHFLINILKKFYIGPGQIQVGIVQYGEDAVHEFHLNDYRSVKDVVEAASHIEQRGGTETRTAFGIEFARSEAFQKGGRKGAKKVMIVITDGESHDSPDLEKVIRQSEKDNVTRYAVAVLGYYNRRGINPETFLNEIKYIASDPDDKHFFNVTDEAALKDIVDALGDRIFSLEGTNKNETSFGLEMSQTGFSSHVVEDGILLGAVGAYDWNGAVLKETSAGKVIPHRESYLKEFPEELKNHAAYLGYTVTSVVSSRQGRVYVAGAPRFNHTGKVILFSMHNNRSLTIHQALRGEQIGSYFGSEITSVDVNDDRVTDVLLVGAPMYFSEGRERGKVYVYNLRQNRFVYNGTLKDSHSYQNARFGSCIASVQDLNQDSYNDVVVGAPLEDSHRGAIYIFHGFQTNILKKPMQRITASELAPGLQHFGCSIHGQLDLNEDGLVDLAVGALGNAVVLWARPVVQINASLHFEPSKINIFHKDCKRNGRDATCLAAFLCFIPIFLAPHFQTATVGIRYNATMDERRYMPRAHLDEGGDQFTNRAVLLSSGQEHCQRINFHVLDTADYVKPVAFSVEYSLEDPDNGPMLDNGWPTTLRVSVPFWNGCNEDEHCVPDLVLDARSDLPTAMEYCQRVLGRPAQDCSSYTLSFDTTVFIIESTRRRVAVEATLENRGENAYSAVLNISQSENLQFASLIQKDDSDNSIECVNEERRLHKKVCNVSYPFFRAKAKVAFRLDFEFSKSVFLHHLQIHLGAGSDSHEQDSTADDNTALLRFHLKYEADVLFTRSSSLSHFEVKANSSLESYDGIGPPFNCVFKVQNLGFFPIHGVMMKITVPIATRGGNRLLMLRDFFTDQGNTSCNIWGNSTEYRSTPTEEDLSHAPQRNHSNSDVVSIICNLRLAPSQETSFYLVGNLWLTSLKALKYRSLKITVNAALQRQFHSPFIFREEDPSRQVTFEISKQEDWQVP
mouse α11β1, sequence (P09055 21-728 partner limits assumed): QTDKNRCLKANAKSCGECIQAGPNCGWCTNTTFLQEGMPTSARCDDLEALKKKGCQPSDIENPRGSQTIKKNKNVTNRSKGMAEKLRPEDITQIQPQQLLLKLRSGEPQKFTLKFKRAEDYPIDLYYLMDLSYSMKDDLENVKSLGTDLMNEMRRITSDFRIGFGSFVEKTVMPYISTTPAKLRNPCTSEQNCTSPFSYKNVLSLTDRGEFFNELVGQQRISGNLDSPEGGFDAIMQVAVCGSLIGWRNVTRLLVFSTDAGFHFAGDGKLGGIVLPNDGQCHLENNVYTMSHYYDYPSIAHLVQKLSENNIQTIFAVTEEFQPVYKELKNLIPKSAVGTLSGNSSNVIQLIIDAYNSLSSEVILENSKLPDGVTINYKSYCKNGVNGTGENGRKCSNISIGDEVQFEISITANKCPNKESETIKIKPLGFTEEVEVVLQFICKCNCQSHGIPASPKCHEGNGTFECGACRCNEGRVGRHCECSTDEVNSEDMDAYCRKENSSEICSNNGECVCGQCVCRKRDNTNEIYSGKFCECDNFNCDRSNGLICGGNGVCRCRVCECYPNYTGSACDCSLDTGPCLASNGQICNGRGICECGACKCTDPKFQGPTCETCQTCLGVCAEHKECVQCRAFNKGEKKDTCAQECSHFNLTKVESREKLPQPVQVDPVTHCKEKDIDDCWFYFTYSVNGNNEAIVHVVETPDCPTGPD

Off Target [3]: No | Murine α11β1 ELISA [4]: No | Human α11β1 ELISA [5]: Yes
B1: 6F9: rabbit anti-α11β1 mAb; heavy chain SEQ ID NO: 183, light chain SEQ ID NO: 184 (antibody)
heavy: METGLRWLLLVAVLKGVQCQSLEESGGDLVKPGASLTLTCTASGSSFSSTYWNCWVRQAPGKGLEWIACINAGSGTTYYASWAKGRFTVSKTSSTTVTLQMTSLTAADTATYFCTRDSDGRFSSGYYFNLWGPGTLVTVSSGQPKAPSVFPLAPCCGDTPSSTVTLGCLVKGYLPEPVTVTWNSGTLTNGVRTFPSVRQSSGLYSLSSVVSVTSSSQPVTCNVAHPATNTKVDKTVAPSTCSKPMCPPPELPGGPSVFIFPPKPKDTLMISRTPEVTCVVVDVSQDDPEVQFTWYINNEQVRTARPPLREQQFNSTIRVVSTLPIAHQDWLRGKEFKCKVHNKALPAPIEKTISKARGQPLEPKVYTMGPPREELSSRSVSLTCMINGFYPSDISVEWEKNGKAEDNYKTTPTVLDSDGSYFLYSKLSVPTSEWQRGDVFTCSVMHEALHNHYTQKSISRSPGK
light: MDTRAPTQLLGLLLLWLPGATFAQVLTQTASPVSAAVGGTVTINCQSSQSVYDNNWLAWYQQKPGQPPKLLIDDASKLTSGVSSRFKGSGSGTQFTLTISGVQCDDAATYYCQGAYYSSGWYWAFGGGTEVVVKGDPVAPTVLIFPPAADQVATGTVTIVCVANKYFPDVTVTWEVDGTTQTTGIENSKTPQNSADCTYNLSSTLTLTSTQYNSHKEYTCKVTQGTTSVVQSFNRGDC
Inhibition of CHO-K1 adhesion to collagen [1]: Yes | Inhibition of FMT [2]: No

Off Target [3]: No | Murine α11β1 ELISA [4]: No | Human α11β1 ELISA [5]: Yes
B2: 4E1: rabbit anti-α11β1 mAb; heavy chain SEQ ID NO: 195, light chain SEQ ID NO: 196 (antibody)
heavy: METGLRWLLLVAVLKGVQCQSLEESGGDLVKPGTSLTLSCTASGFSFGSYYYMCWVRQAPGKGLEWIACIDVGSSGDTYYASWVNGRFTISKTSSTTVTLQMTSLTAADTATYFCARDDTAAGGFGNLELWGPGTLVTVSSGQPKAPSVFPLAPCCGDTPSSTVTLGCLVKGYLPEPVTVTWNSGTLTNGVRTFPSVRQSSGLYSLSSVVSVTSSSQPVTCNVAHPATNTKVDKTVAPSTCSKPMCPPPELPGGPSVFIFPPKPKDTLMISRTPEVTCVVVDVSQDDPEVQFTWYINNEQVRTARPPLREQQFNSTIRVVSTLPIAHQDWLRGKEFKCKVHNKALPAPIEKTISKARGQPLEPKVYTMGPPREELSSRSVSLTCMINGFYPSDISVEWEKNGKAEDNYKTTPTVLDSDGSYFLYSKLSVPTSEWQRGDVFTCSVMHEALHNHYTQKSISRSPGK
light: MDTRAPTQLLGLLLLWLPGARCAFELTQTPSSVSEPVGGTVTIKCQASQSIYSYFSWYQQKPGQPPKRLIYQASTLASGVPSRFKGSGSGTDFTLTISDLECADAATYYCQNNYGRGSGSYFFGFGGGTEVVVKGDPVAPTVLIFPPAADQVATGTVTIVCVANKYFPDVTVTWEVDGTTQTTGIENSKTPQNSADCTYNLSSTLTLTSTQYNSHKEYTCKVTQGTTSVVQSFNRGDC
Inhibition of CHO-K1 adhesion to collagen [1]: Yes | Inhibition of FMT [2]: No

Off Target [3]: No | Murine α11β1 ELISA [4]: No | Human α11β1 ELISA [5]: Yes
B3: 6G4: rabbit anti-α11β1 mAb; heavy chain SEQ ID NO: 181, light chain SEQ ID NO: 182 (antibody)
heavy: METGLRWLLLVAVLKGVQCQQQLEESGGGLVKPGGTLTLTCKASGVALNPYYYMCWVRQAPGKGLEWIACVDADSSGSTYYASWAKGRFTISKTSSTTVTLKMTSLTAADTATYFCARESVDYSSVGIGYVHGTDGLWGPGTLVTVSSGQPKAPSVFPLAPCCGDTPSSTVTLGCLVKGYLPEPVTVTWNSGTLTNGVRTFPSVRQSSGLYSLSSVVSVTSSSQPVTCNVAHPATNTKVDKTVAPSTCSKPMCPPPELPGGPSVFIFPPKPKDTLMISRTPEVTCVVVDVSQDDPEVQFTWYINNEQVRTARPPLREQQFNSTIRVVSTLPIAHQDWLRGKEFKCKVHNKALPAPIEKTISKARGQPLEPKVYTMGPPREELSSRSVSLTCMINGFYPSDISVEWEKNGKAEDNYKTTPTVLDSDGSYFLYSKLSVPTSEWQRGDVFTCSVMHEALHNHYTQKSISRSPGK
light: MDTRAPTQLLGLLLLWLPGARCADIVVTQTPSSVSAAVGGTVTIKCQASQSISNYFSWYQQKPGQPPKLLIYRASTLASGVPSRFKGSGSGTEFTLTISDLECADAATYYCQCTYGRSNSNFFYGFGGGTEVVVKGDPVAPTVLIFPPAADQVATGTVTIVCVANKYFPDVTVTWEVDGTTQTTGIENSKTPQNSADCTYNLSSTLTLTSTQYNSHKEYTCKVTQGTTSVVQSFNRGDC
Inhibition of CHO-K1 adhesion to collagen [1]: Yes | Inhibition of FMT [2]: No

Off Target [3]: No | Murine α11β1 ELISA [4]: No | Human α11β1 ELISA [5]: Yes
B4: 6C7: rabbit anti-α11β1 mAb; heavy chain SEQ ID NO: 185, light chain SEQ ID NO: 186 (antibody)
heavy: METGLRWLLLVAVLKGVQCQQQLEESGGGLVKPGGTLTLTCKASGIDFSSYYYMCWVRQAPGKGLELIVCIYTSSGGTWYASWVNGRLTISRSTSLNTVDLKMTSLTAADTATYFCARGVYSGSSDYPTRLDLWGQGTLVTVSLGQPKAPSVFPLAPCCGDTPSSTVTLGCLVKGYLPEPVTVTWNSGTLTNGVRTFPSVRQSSGLYSLSSVVSVTSSSQPVTCNVAHPATNTKVDKTVAPSTCSKPMCPPPELPGGPSVFIFPPKPKDTLMISRTPEVTCVVVDVSQDDPEVQFTWYINNEQVRTARPPLREQQFNSTIRVVSTLPIAHQDWLRGKEFKCKVHNKALPAPIEKTISKARGQPLEPKVYTMGPPREELSSRSVSLTCMINGFYPSDISVEWEKNGKAEDNYKTTPTVLDSDGSYFLYSKLSVPTSEWQRGDVFTCSVMHEALHNHYTQKSISRSPGK
light: MDTSTSTALLGLLLLWLTGARCAIEMTQSPPSLSASVGETVRIRCLASEDIYSGISWYQQKPEKPPTLLISGASNLESGVPPRFSGGGSGTDYTLTIGGVQAEDVATYYCLGGYSFSSTGLTFGAGTKVEIKRDPVAPSVLLFPPSKEELTTGTATIVCVANKYFPDVTVTWEVDGTTQTTGIENSKTPQNSADCTYNLSSTLTLTSTQYNSHKEYTCKVTQGTTSVVQSFNRGDC
Inhibition of CHO-K1 adhesion to collagen [1]: Yes | Inhibition of FMT [2]: No

Off Target [3]: No | Murine α11β1 ELISA [4]: No | Human α11β1 ELISA [5]: Yes
B5: 5D7: rabbit anti-α11β1 mAb; heavy chain SEQ ID NO: 191, light chain SEQ ID NO: 192 (antibody)
heavy: METGLRWLLLVAVLKGVQCQEQLVESGGGLVQPEGSLTLTCKASGFDFSSNAMCWVRQAPGKGLEWIACIYNGDGSTYYASWVNGRFTISKTSSTTVTLQMTSLTAADTATYFCARGLSNWNRDNLWGPGTLVTVSSGQPKAPSVFPLAPCCGDTPSSTVTLGCLVKGYLPEPVTVTWNSGTLTNGVRTFPSVRQSSGLYSLSSVVSVTSSSQPVTCNVAHPATNTKVDKTVAPSTCSKPMCPPPELPGGPSVFIFPPKPKDTLMISRTPEVTCVVVDVSQDDPEVQFTWYINNEQVRTARPPLREQQFNSTIRVVSTLPIAHQDWLRGKEFKCKVHNKALPAPIEKTISKARGQPLEPKVYTMGPPREELSSRSVSLTCMINGFYPSDISVEWEKNGKAEDNYKTTPTVLDSDGSYFLYSKLSVPTSEWQRGDVFTCSVMHEALHNHYTQKSISRSPGK
light: MDTRAPTQLLGLLLLWLPGATFAQVLTQTPSSVSAAVGGTATINCQASQSLYSPKNLAWYQQTPGQPPKLLIYSASKLASGVPSRFKGSGSGTQFTLTISGVQCDDAAIYYCQGEFSCTTAACFAFGGGTEVVVKGDPVAPTVLIFPPAADQVATGTVTIVCVANKYFPDVTVTWEVDGTTQTTGIENSKTPQNSADCTYNLSSTLTLTSTQYNSHKEYTCKVTQGTTSVVQSFNRGDC
Inhibition of CHO-K1 adhesion to collagen [1]: Yes | Inhibition of FMT [2]: No
